T1: MadR (Mycobacterium tuberculosis H37Rv, UniProt P9WMD9 1-234)
T1 sequence: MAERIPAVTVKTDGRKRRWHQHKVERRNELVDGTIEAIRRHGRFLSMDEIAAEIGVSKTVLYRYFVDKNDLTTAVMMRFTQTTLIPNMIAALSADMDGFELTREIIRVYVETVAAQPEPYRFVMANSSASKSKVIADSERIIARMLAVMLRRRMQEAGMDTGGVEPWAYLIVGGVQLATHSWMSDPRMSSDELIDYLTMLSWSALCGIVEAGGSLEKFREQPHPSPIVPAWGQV

B1: desA1 control (substituted motif) (dsDNA)
DNA 1: CCGTTCGAGACGACTAATGAGGTGCAACAATATACGATCACCATCGGTA
DNA 2: TACCGATGGTGATCGTATATTGTTGCACCTCATTAGTCGTCTCGAACGG
B2: desA2 control (substituted motif) (dsDNA)
DNA 1: TTCGAGAACGATGCAAATACGAAGGTATACTACCTCATGGTAATCAAACC
DNA 2: GGTTTGATTACCATGAGGTAGTATACCTTCGTATTTGCATCGTTCTCGAA

Target: T1, MadR
Assay: EMSA
Conditions: protein: recombinant; tags: His-tag implied (pET28a, cobalt IMAC); chain copies: 2; blunt

Row | Binder | binding result
1 | B1 | no binding
2 | B2 | no binding

From article PMC8872791, “MadR mediates acyl CoA-dependent regulation of mycolic acid desaturation in mycobacteria” (Proceedings of the National Academy of Sciences of the …, 2022)
